According to patent publication US20180222961A1 (IMMATICS BIOTECHNOLOGIES, published 2018):

Key:
HLA-B*44:02 = molecular target: T1, HLA-B*44:02 (human); assay: UV-exchange b2m ELISA; exchange-yield grade
T1 construct: also called peptide-receptive MHC molecules
How it was run: (§1)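 Peptide–MHC complexes formed by UV-ligand exchange, in which a UV-cleavable peptide is replaced by the test peptide. Exchange yield measured by ELISA detecting β2m of stabilised complexes captured on streptavidin, against refolded HLA-A*02:01/MLA-001 monomer standards (15-500 ng/ml); samples diluted 100-fold.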

HLA-A*02:01 = molecular target: T2, HLA-A*02:01 (human); assay: UV-exchange b2m ELISA; exchange-yield grade
T2 construct: also called peptide-receptive MHC molecules
How it was run: as §1

peptide exchange yield (HLA-B*44:02) | peptide exchange yield (HLA-A*02:01) | Binder
20 to 50% | – | TEVSRTEL
– | > 75% | FLDPDRHFL
20 to 50% | – | AEDKRHYSV
10 to 20% | – | PEKTTHSF
20 to 50% | – | REEFVSIDHL
– | > 75% | MMEEMIFNL
20 to 50% | – | KEAIREHQM
– | > 75% | VLQGLLRSL
– | > 75% | KLFDTQQFL
10 to 20% | – | LELPPILVY
10 to 20% | – | GEIEIHLL
20 to 50% | – | VEQTRAGSLL
20 to 50% | – | REGDTVQLL
10 to 20% | – | NEIWTHSY
20 to 50% | – | LEKALQVF
20 to 50% | – | RELANDELIL

peptide exchange yield (HLA-B*44:02) | peptide exchange yield (HLA-A*02:01) | Binder
10 to 20% | – | SDSQVRAF
– | > 75% | GLLQELSSI
20 to 50% | – | REKFIASVI
20 to 50% | – | SEVPTGTTA
20 to 50% | – | REPGDIFSEL
20 to 50% | – | GEPATTVSL
20 to 50% | – | AEHEGVSVL
20 to 50% | – | AEQDPDELNKA
10 to 20% | – | FESHSTVSA
10 to 20% | – | EEQYIAQF
– | > 75% | SLLLPSIFL
10 to 20% | – | TEFPLFSAA
20 to 50% | – | SEITRIEM
– | 50 to 75% | MIPTFTALL
20 to 50% | – | QEILTQVKQ
10 to 20% | – | SEDPSKLEA

More lines, now with the values behind:

Binder | peptide exchange yield (HLA-B*44:02) | peptide exchange yield (HLA-A*02:01)
TTYEGSITV | – | > 75%
TEVSRTEAI | 20 to 50% | –
EDGRLVIEF | 10 to 20% | –
HESSSHHDL | 20 to 50% | –
HEFGHVLGL | 20 to 50% | –
SEDGLPEGIHL | 20 to 50% | –
KVLGVNVML | – | > 75%
YLEDTDRNL | – | > 75%
YLTDLQVSL | – | > 75%
EEAQWVRKY | 20 to 50% | –
EDAALFKAW | 20 to 50% | –
AEHFSMIRA | 20 to 50% | –
NEAIMHQY | 20 to 50% | –
IEALSGKIEL (also called lEALSGKIEL) | 20 to 50% | –
IEHSTQAQDTL | 20 to 50% | –
QEAARAAL | 20 to 50% | –
TLLKALLEI | – | > 75%
SFEQVVNELF | 20 to 50% | –
KESIPRWYY | 20 to 50% | –
YMVHIQVTL | – | > 75%
GLLSLTSTLYL | – | > 75%
TEAVVTNEL | 20 to 50% | –
